The source of these data is publication PMC11988184.

The chains are these.
B1: c-Myc tagged MIRO1 (mitochondrial rho GTPase 1), wild type [not stated] / MCU (mitochondrial Ca2+ uniporter), endogenous in HEK cells [human (endogenous in HEK)] (parent)
chain 1: MKKDVRILLVGEPRVGKTSLIMSLVSEEFPEEVPPRAEEITIPADVTPERVPTHIVDYSEAEQSDEQLHQEISQANVICIVYAVNNKHSIDKVTSRWIPLINERTDKDSRLPLILVGNKSDLVEYSSMETILPIMNQYTEIETCVECSAKNLKNISELFYYAQKAVLHPTGPLYCPEEKEMKPACIKALTRIFKISDQDNDGTLNDAELNFFQRICFNTPLAPQALEDVKNVVRKHISDGVADSGLTLKGFLFLHTLFIQRGRHETTWTVLRRFGYDDDLDLTPEYLFPLLKIPPDCTTELNHHAYLFLQSTFDKHDLDRDCALSPDELKDLFKVFPYIPWGPDVNNTVCTNERGWITYQGFLSQWTLTTYLDVQRCLEYLGYLGYSILTEQESQASAVTVTRDKKIDLQKKQTQRNVFRCNVIGVKNCGKSGVLQALLGRNLMRQKKIREDHKSYYAINTVYVYGQEKYLLLHDISESEFLTEAEIICDVVCLVYDVSNPKSFEYCARIFKQHFMDSRIPCLIVAAKSDLHEVKQEYSISPTDFCRKHKMPPPQAFTCNTADAPSKDIFVKLTTMAMYPHVTQADLKSSTFWLRASFGATVFAVLGFAMYKALLKQR
chain 2: VHQRIASWQNLGAVYCSTVVPSDDVTVVYQNGLPVISVRLPSRRERCQFTLKPISDSVGVFLRQLQEEDRGIDRVAIYSPDGVRVAASTGIDLLLLDDFKLVINDLTYHVRPPKRDLLSHENAATLNDVKTLVQQLYTTLCIEQHQLNKERELIERLEDLKEQLAPLEKVRIEISRKAEKRTTLVLWGGLAYMATQFGILARLTWWEYSWDIMEPVTYFITYGSAMAMYAYFVMTRQEYVYPEARDRQYLLFFHKGAKKSRFDLEKYNQLKDAIAQAEMDLKRLRDPLQVHLPLRQIGEKD

The variants in the assay derive from B1. Nature of the assay: co-immunoprecipitation (anti-Myc IP, immunoblot quantification). The note with it: with MCU (mitochondrial Ca2+ uniporter), c-Myc-tagged MIRO1 constructs expressed in HEK cells for 24 h, n = 6 independent experiments, parent: 0.26, read off a plot.
As to chain 1 S432N, the response was 0.36 AU.
For chain 1 E208K E328K the value was 0.065 AU.
